These results are taken from a protein production outcome set (Wang et al. 2014).
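Further: failed if final PepcDB status was selected cloned or expressed and not failed if soluble or beyond.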

This series in a line: label from the status in PepcDB records.
In the case of “MCYHLIIDSFIDRISRMHTQRGLEVTTGSIEAVDSINYFHEQVLSSGQNAIQILDSAKKHTDNLLIQTYAAAFYLYAQEDVANEQASDYLQSAFRLLTSANEREKLIFEAVTNWSKRDYANAISLLVTLLERYPRDTLALKFMEWLFYCTGQAFNAEYFLKVCDKCAPENQDESHFLAIHSFALELCGQYSKAKEMAEEAITMNLLTPWAHHTLAHVHLLTSDITGGINRLRDLQKTWEDILPLLKGHNTWHLALFYLANRNEEEVKKLYPHISGALPDTVLEQLDTISLLWRMDMAGLPQDRLLNQVVDHLSTHPLEYYTGFTNAHFIYCLVKSGYKNEADESLKRMKFYACSPSSDALWGDVVLPLCQGIYAFADADYKTALMLMEPVIGECAQLGGSDAQIELFFQTYLLVLIHNKQKDKALQFFTEHLKYYNNTPLSDWWFQSANKA”, the protein production result is “failed”.

Regarding “MDAAVVGGGPAGSLAAILLGKSYDVALFEEHQSAGFPVQCAGLVSDKCYKKLKEHCKAEKAIENHIKGAFFFSPSGKIVLEGRGEAVVVERKILDRLLFERAAERAKVFVKEKARLNGFRIITPSREVSAEKIIGADGVNSTVREHFGFPTMGFFTAVQVEAKFEPLDENCVELYFGGNWSDSFFAYAIPLGDTARIGVVSRSSPLRYLENLMKRHPSVSGRVEGSAVELNAGAIPDRLVKFSKRDVALIGDAAGMVKPYTGGGLYYHLIAAEKLAESFPDLKGYEKSYLKEMGREYRFGYAVRKLYSLPDEKLEQLFSAMADFDFRGVHMDSPSTLIRKAADISFRLLRKPSLAFYLVKSLFLLEHHHHHH”, the protein production entry is reported as “failed”.

Consider “MDAIRIVLKNISQVLLLNNAWTGLFILLGLFIGSWKVGVMALIASVIALLLAKRTNYSEEEINTGLSGFNPVLTAIALTLFLVPKWYSLIIILVAIIITMPIGSAFREFFKPFGVPMLTMPYVFVSWLILLMSFQFKFVNADVNILPNAIQEIQFSGHHIQFINAFLSGFSEIFLLKSVLAGTLILIGIFIASRKAGVYAIVANLIGFLAVIVLGANHDQINEGLFGYNVILTVLALGIAFRTRIQRPISIVLGILLTVVIHAGMTTLLTPYGLPVFTLPFIIATWIMLFAGNQMKAQEI”, for which the protein production result was “failed”.

As to “MDALEIFKTLFSLVMRFSSYLPSNEEISDMKTTELYAFLYVALFGPKKMKEIAEFLSTTKSNVTNVVDSLEKRGLVVREMDPVDRRTYRVVLTEKGKEIFGEILSNFESLLKSVLEKFSEEDFKVVSEGFNRMVEALSREGR”, the protein production result was “not failed”.

Consider “MDALVEDDICILNHEKAHKRDTVTPVSIYSGDESVASHFALVTAYEDIKKRLKDSEKENSLLKKRIRFLEEKLIARFEEETSSVGREQVNKAYHAYREVCIDRDNLKSKLDKMNKDNSESLKVLNEQLQSKEVELLQLRTEVETQQVMRNLNPPSSNWEVEKLSCDLKIHGLEQELELMRKECSDLKIELQKAKQTDPYQEDNLKSRDLQKLSISSDNMQHAYWELKREMSNLHLVTQVQAELLRKLKTSTAIKKGKSLFTGNH”, for which the protein production entry was “not failed”.

In the case of “MDASTSFAILPSNVKQKTAFPRKINQVKTASWANNCLTGTLDVGHFSCYFVNEKIARVTVNPFGEADLTPSIAAINDTEKQAAVFTETNDHYELQFADKKLIVSKNPFQIIMKQAGKTIFQTEGLAINRDKEHQISIQSKPGTAIFGLGEKTGALNKAGSIISMWNTDVYSPHNKDTVELYQSIPFMIADTEETTYGLFYDNSHRTEFDFQSFEEMYTILAEGGQANLYVIFGEDVKEVVANYTNLTGKTPLPPKWSLGYHQSRYSYTSEEEVERIANTFKEKEIPLDCVFMDIHYMDDFRVFTFNPDTFPNGPELIARLREQNIDVVPIVDPGIKKDVNYSVYQEGIKHHYFCRKLEGAIYYGDVWPGVSAFPDFLSTTVQRWWGDLHQFYTDLGIRGIWNDMNEPSVFNESKTMDLDVVHNMDGKNVTHKEAHNLYGLYMSKATFEGLKRLVPNERPFSLTRAGYAGVQRYSAVWTGDNRSHWEHLEMSLPMIMNLGLSGVAFTGADVGGFSSDCTKEMLIRWTQAGAFLPYFRNHCVQDSIYQEPWAFGLDAEKIVKKYIEMRYTFLPYIYTEFQKTAENGLPIVRPLYMEFKEERDLIQVNDQFMLGENILVAPIVREGQVKRLVRLPKGTWFNYWTKEQVEGGDYIIADAPIDVMPIYIKAGTILPLGTSVQNTKEAQDLALEIYLDNDEASGYVYNDDGKSYQYESGKISKTAFTATFKNGEVQINGDHHGEENLQQKVTTIEVFGKKIDKITRAGI”, the protein production entry is “failed”.

Take “MDATMVFKRLLGSLGVGAPTVDTVLDPAPVLPGGTLTGQVHLEGGQTDFDIEHITLELVARVEAEHEDGEDEGVVVFDRFTVGGGFRLGAEEPRSVPFRVTLPWETPITELYGQPLGIVLGVRTELAVADAKDKGDLDQLTVTALPVQEAVLEAFGQLGFGFGSADLEYGHIGGTGQQLPFYQEIELVPAPQYADRLNEIELTFLAGPGGLEVVLEADKRGGLLSSGHDAVTRFSVGHHDARDWAAEVEGWVRQLVEHHTTYGAPGTHGHSTPYAGHGHHDPHGNGGRHHDDHRSGPGVGTAVAAGAAGLAVGVVGGMVAAEVVDEVGDFFEGDDEEEDEG”: the protein production entry is listed as “not failed”.

With “MDDDPHFDQNVQTVIAKTEAYITESVKAGGTGRALRDAHAKGYGLVRGEVEILDGLPPEYAQGIYATPGTHDALIRFSNGSPHAGADARLGAATGLALKIFDIPGPTLLEDEPDTGTFDYANINGPIFFCNTVEHYLFIQELFLNAPAYFSQGRPGAHRFFTDFVTGKGTLDQDDWAWDEFLAFLRLSKTPPANLLLSSYWTMGAVRHGDYIAKVRITPDPSFAAAVVRRDIDPTSAQEVFRPALEAELQERPYAFDIQVQLCTDLERMPVEDTTVEWPEQLSPSVTVAKLRLPRQDISGPENLEKMDSLSFTPWRVTAEHAPLGNIMRSRKEVYRQSSMELEHHHHHH”, the protein production result is given as “failed”.

Regarding “MDDERTVRSEVHVVVEDGEIVAIEDGYASGDEVVDATEEVVIPGLVNCHTHMYALPIRGAPLAASPESFYEALVDIWWNVDEAFTERDARLSALGSSVEMLQSGVTTFCDNYSGPNTLPGGLDAVAEGVAQTPIRGMITFETTARNSEAQARDGIAENQRFIDEAEDQYDTVSGHYCLHTLFTNTEDIVAECVDRATDDNRPIQIHLEEGLVDVHESIADYGERPVFALEDMGFFDAEVIAAHCVHSTESEIEVLAEHDVNVAHNPYSNINNAVGIADVETMQAHEMTIGLGDDGWDPDMFETMRSAVGIHKLKQRNPSGFDMATALEWATIGSAAVLGMDDAVGSIEVGKRGDFVTLDLGPNPVLDGSAPYYVVSAASRADVTRTIIDGESVYDQQSGVTGVDDSDMTAVGDASAELWERL”, the protein production entry is recorded as “failed”.

“MDDIRCAIIIDPDLPPGVIANTAAVLAMSLGKRHPELVGQDLPDARGQPRQGITTVPIPVLKGGADQLRALRAAASETGLTLVELTSATRFTRSYQEYAAALAATPEEMVEYQGLALCGPGKRVRQLTGSLGLLRLEHHHHHH”: the protein production result was “failed”.

For “MDDLASQSFPEPERAIMKATYQVLCEYGYADLTIQQIADEYGKTTTAVHYHCDTKNKLLTAFLDYLLEELADSVHNIRTTNPENRLKFLLDELLVKSKNEPVLSIALLEMQSQTPYKEPFRERFKQMAVVNRQTELDFTVSETA”, the protein production result is listed as “failed”.

With “MDDLIRLLEEMGIPFAYDHFAEGESPDPPFICYLLPQSDNFSADGKVYLKVSSVNIELYTDCKDLSVEQKLEAVLDTHGIFYDKTKVWIESEKLYEVLYSFEMEVLEHHHHHH”, the protein production entry was “failed”.

As for “MDDQGCPRCKTTKYRNPSLKLMVNVCGHTLCESCVDLLFVRGAGNCPECGTPLRKSNFRVQLFEDPTVDKEVEIRKKVLKIYNKREEDFPSLREYNDFLEEVEEIVFNLTNNVDLDNTKKKMEIYQKENKDVIQKNKLKLTREQEELEEALEVERQENEQRRLFIQKEEQLQQILKRKNKQAFLDELESSDLPVALLLAQHKDRSTQLEMQLEKPKPVKPVTFSTGIKMGQHISLAPIHKLEEALYEYQPLQIETYGPHVPELEMLGRLGYLNHVRAASPQDLAGGYTSSLACHRALQDAFSGLFWQPS”, the protein production entry was “not failed”.

Take “MDDVGRYQCLAVNEMGTVKKVVTVVLQSAPVFQVEPRDVTVRSGVDVELRCRATGEPVPTIEWLRAGRPLQAGRKLRALPDGSLWLEHVEAGDAGVYECVAHNRLGSVTAKALLAVRGEPRGSRGSMTGVINGQEFGMATLNISVLQQGSSEAPTIWSSISHVPASVGPLMRVLVVTIAPIYWALARESGEALNGYSLTGGSFQQESQMEFSTGELLTMTQVARGLDPDGLLLVDMKINGMIPESLADGDLRVQDFQEHYVQTGPGQLFAGSTQRFLHDSLPASLRCNHSIQYDETRGLQPQLVQHLRASSISSAFDPEAEALNFQLTTALQTEENEVGCPEGFEPDVQGAFCVDKDECSGGPSPCSHTCRNAPGHFSCSCPTGFSLAWDHRNCRDVDECAGDTHLCQEEQRCVNLLGSYNCLASCRPGFRVTADGSNCEDVDECLEQLDECHYNQLCENTPGGHHCGCPRGYRQQGHSLPCLDINECLQLPTPCVYQCQNLQGSYRCLCPPGQTLLRDGRTCIPLERNRQNITIVSHRSPFGPWLRSRVPRPSSSYHTWVSLRPGSGALNSVGRAWCPPGFIRQDGVCADLDECRVRSLCQHACQNTEGSYYCLCPSGYRLLPSGKNCQDINECEEDGIECGPGQMCFNTRGSFQCVDTPCPTTYRQGSSPGTCFRRCSQDCSASGPSTLQYRLLPLPLGVRAHHDVARLAAFSEAGIPANRTELTVLEPDPRSPFALRQLRAGQGAVYTRRALTRAGLYRLTVRAAAPRHQSVYILLIAVSPYPY”: the protein production result was “failed”.

On to “MDDWRRFAQQMASLARDLLSQESLHDTLDRITASATELVEDCDAAGILILRGTKVQSLAPTEQVVIDSDALQGRVGEGPCFDAARSGTGERQFRIADFTDEAQRWPKYVPEARKLNLGSMMGFLLFTEDEDLGALNMYSYRPGAFTEADETAGWLLASHAAVAFSSARTHAQMQEAIGTRHIIGEAMGILMGRHRMSEDQAFAALRRYSQDHNVKLRNVAAQVCERGGLPEPTDKR”, for which the protein production result is “failed”.

“MDDYSLDEFRRRWQEELAQAQAPKKRRRPEAAERRARRPEVGSGRSEQASGDPALAQGLLEGAGRPPAARATRAEGQDVASRSRSPLAREGAGGGEQLVDQLIRDLNEMNDVPFFDIQLPYELAINIFQYLDRKELGRCAQVSKTWKVIAEDEVLWYRLCQQEGHLPDSSISDYSCWKLIFQECRAKEHMLQTNWKNRKGAVSELEHVPDTVLCDVHSHDGVVIAGYTSGDVRVWDTRTWDYVAPFLESEDEEDEPGMQPNVSFVRINSSLAVAAYEDGFLNIWDLRTGKYPVHRFEHDARIQALALSQDDATVATASAFDVVMLSPNEEGYWQIAAEFEVPKLVQYLEIVPETRRYPVAVAAAGDLMYLLKAEDSARTILYAHGPPVTCLDVSANQVAFGVQGLGWVYEGSKILVYSLEAGRRLLKLGNVLRDFTCVNLSDSPPNLMVSGNMDGRVRIHDLRSGNIALSLSAHQLRVSAVQMDDWKIVSGGEEGLVSVWDYRMNQKLWEVYSGHPVQHISFSSHSLITANVPYQTVMRNADLDSFTTHRRHRGLIRAYEFAVDQLAFQSPLPVCRSSCDAMATHYYDLALAFPYNHV”: the protein production entry is reported as “failed”.
